Results reported in patent US20250320304A1 (Janssen / Centocor, published 2025).

T1: biotinylated-BCMA protein (UniProt Q02223 1-54, limits assumed, biotinylated (site not stated))
T1 construct: also called recombinant BCMA antigen; recombinant biotinylated BCMA
T1 sequence (looked up): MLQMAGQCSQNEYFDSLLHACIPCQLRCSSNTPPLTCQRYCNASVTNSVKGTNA

B1: TD01B46 (bispecific antibody, human IgG1, kappa, L234A L235A)
light: DIVMTQSQKFMSTTVGDRVSITCKASQNVGTAVAWYQQKPGQSPKLLIYSASNRYTGVPDRFTGTGSGTDFTLTIINVQSEDLADYFCQQYGSSPWTFGGGTKLEIKRTVAAPSVFIFPPSDEQLKSGTASVVCLLNNFYPREAKVQWKVDNALQSGNSQESVTEQDSKDSTYSLSSTLTLSKADYEKHKVYACEVTHQGLSSPVTKSFNRGEC
heavy: QVQLQQSGAELVKPGASVKLSCKASGYTFTNNVMHWVRQKPGQGLEWIGYILPYNDGTKYNEKFKGKATLTSDKSSSTAYMELSSLTSEDSAVYYCARYDYDGYFDYWGQGTTLTVSSASTKGPSVFPLAPSSKSTSGGTAALGCLVKDYFPEPVTVSWNSGALTSGVHTFPAVLQSSGLYSLSSVVTVPSSSLGTQTYICNVNHKPSNTKVDKKVEPKSCDKTHTCPPCPAPEAAGGPSVFLFPPKPKDTLMISRTPEVTCVVVSVSHEDPEVKFNWYVDGVEVHNAKTKPREEQYNSTYRVVSVLTVLHQDWLNGKEYKCKVSNKALPAPIEKTISKAKGQPREPQVYTLPPSREEMTKNQVSLSCAVKGFYPSDIAVEWESNGQPENNYKTTPPVLDSDGSFFLVSKLTVDKSRWQQGNVFSCSVMHEALHNRFTQKSLSLSPGK
chain: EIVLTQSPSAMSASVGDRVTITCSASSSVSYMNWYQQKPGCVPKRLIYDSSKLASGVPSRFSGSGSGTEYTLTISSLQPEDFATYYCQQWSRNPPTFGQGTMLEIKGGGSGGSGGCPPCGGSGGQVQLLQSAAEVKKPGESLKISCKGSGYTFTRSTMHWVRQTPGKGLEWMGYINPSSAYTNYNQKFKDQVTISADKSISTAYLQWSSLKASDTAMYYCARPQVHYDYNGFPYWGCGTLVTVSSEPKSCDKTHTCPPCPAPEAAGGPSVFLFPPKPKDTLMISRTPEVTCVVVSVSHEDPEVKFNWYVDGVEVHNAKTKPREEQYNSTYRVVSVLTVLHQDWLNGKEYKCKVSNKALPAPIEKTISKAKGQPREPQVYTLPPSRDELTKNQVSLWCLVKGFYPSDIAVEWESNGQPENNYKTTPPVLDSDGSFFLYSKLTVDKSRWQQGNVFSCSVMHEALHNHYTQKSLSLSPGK
notes: Stapled bispecific from the large-scale batch; also called BCMB749 × Cris7b spFv
B2: TD01B49 (bispecific antibody, human IgG1, kappa, L234A L235A)
light: B1 light
heavy: B1 heavy
chain: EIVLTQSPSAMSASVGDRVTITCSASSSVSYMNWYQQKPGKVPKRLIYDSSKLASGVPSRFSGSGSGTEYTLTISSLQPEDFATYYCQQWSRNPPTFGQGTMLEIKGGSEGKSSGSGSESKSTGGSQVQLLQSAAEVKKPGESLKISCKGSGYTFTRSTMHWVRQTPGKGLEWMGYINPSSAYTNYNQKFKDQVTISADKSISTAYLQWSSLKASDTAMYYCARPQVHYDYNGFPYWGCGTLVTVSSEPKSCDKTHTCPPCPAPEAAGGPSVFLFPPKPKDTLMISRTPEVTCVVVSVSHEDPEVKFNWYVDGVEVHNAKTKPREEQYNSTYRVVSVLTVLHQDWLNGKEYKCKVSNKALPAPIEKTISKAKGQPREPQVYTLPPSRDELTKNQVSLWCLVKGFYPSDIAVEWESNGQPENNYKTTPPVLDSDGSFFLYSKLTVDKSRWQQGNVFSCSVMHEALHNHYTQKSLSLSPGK
notes: also called BCMB749 × Cris7b scFv Bird
B3: TD01B48 (bispecific antibody)
light: B1 light
heavy: B1 heavy
scFv-Fc: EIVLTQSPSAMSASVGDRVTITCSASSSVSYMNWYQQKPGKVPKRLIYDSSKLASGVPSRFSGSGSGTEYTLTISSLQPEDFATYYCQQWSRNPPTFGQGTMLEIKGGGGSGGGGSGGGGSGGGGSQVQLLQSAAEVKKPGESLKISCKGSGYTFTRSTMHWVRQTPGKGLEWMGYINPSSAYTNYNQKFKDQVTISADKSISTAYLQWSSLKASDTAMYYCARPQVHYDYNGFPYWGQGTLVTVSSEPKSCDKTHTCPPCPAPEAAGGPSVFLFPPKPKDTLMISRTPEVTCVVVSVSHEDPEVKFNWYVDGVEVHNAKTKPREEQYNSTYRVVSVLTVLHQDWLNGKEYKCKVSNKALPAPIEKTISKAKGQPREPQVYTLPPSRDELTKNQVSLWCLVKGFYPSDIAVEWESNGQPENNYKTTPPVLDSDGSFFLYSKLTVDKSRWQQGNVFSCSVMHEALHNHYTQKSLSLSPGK
notes: also called BCMB749 × Cris7b scFv G4S; Cris7 scFv B48 G4S

Tests used:
[1] = target: T1, biotinylated-BCMA protein; assay: BLI (Octet), biotinylated BCMA on streptavidin sensor, bispecific in solution, 1:1 model
Experimental: Binding of the Cris7b scFv and stapled spFv bispecific molecules to recombinant CD3 antigen (human CD3 epsilon and CD3 delta heterodimer protein, Acro Biosystems) and recombinant BCMA antigen were measured by biolayer interferometry (BLI) using an OCTET HTX instrument (Sartorius, formerly ForteBio). To evaluate BCMA binding, Streptavidin (SA) capture sensors (Sartorius) were loaded with biotinylated-BCMA protein to ˜1 nm signal in PBS. […] Association and dissociation times were 900 s, respectively. […] All measurements were performed at 30° C. with agitation at 1,200 rpm. Sensorgrams were referenced for buffer effects and then analyzed using the ForteBio Data Analysis HT Software (V. 12.0.1.55). Kinetic responses were baseline subtracted, aligned and globally fit using a 1:1 fitting model or 2:1 heterogeneous ligand binding model to obtain values for association (Kon), dissociation (Koff) rate constants and the equilibrium dissociation constants (KD).

[2] = target: T2, Human CD3E-CD3D Heterodimer Protein (Acro Biosystems) (human, UniProt P07766 23-126; P04234 22-105); assay: BLI (Octet), bispecific on anti-human Fc sensor, CD3 in solution, 2:1 heterogeneous ligand model, ka
T2 construct: also called recombinant CD3 antigen (human CD3 epsilon and CD3 delta heterodimer protein, Acro Biosystems); Recombinant CD3E/D heterodimer protein
T2 sequence (P07766 23-126 limits assumed, chain 1 of 2): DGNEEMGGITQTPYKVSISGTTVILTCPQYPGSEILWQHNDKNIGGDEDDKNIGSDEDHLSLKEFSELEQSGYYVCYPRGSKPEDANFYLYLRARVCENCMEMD
T2 sequence (P04234 22-105 limits assumed, chain 2 of 2): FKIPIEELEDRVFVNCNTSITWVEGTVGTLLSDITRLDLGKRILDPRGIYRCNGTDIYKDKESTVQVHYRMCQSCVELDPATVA
Experimental: (§1) To evaluate CD3 binding, anti-human IgG Fc (AHC) capture biosensors (Sartorius) were loaded with 3 ug/mL bispecific sample of interest in PBS. After loading sensor tips were washed in 1×DPBS+0.02% Tween 20+1 mg/mL Bovine Serum Albumin (BSA) for blocking. […] Association was monitored for 1800 s and dissociation for 900 s, respectively. All measurements were performed at 30° C. with agitation at 1,200 rpm. Sensorgrams were referenced for buffer effects and then analyzed using the FORTEBIO Data Analysis HT Software (V. 12.0.1.55). Kinetic responses were baseline subtracted, aligned and globally fit using a 1:1 fitting model or 2:1 heterogeneous ligand binding model to obtain values for association (Kon), dissociation (Koff) rate constants and the equilibrium dissociation constants (KD).
(§2) Recombinant CD3E/D heterodimer protein was used to assess binding of the scFv/spFv anti-CD3 arms.

[3] = target: T2, Human CD3E-CD3D Heterodimer Protein …; assay: BLI (Octet), bispecific on anti-human Fc sensor, CD3 in solution, 2:1 heterogeneous ligand model, KD1
Experimental: as §1, §2

[4] = target: T2, Human CD3E-CD3D Heterodimer Protein …; assay: BLI (Octet), bispecific on anti-human Fc sensor, CD3 in solution, 2:1 heterogeneous ligand model, KD2
Experimental: as §1, §2

[5] = target: T2, Human CD3E-CD3D Heterodimer Protein …; assay: BLI (Octet), bispecific on anti-human Fc sensor, CD3 in solution, 2:1 heterogeneous ligand model, ka2
Experimental: as §1, §2

[6] = target: T2, Human CD3E-CD3D Heterodimer Protein …; assay: BLI (Octet), bispecific on anti-human Fc sensor, CD3 in solution, 2:1 heterogeneous ligand model, kdis
Experimental: as §1, §2

[7] = target: T2, Human CD3E-CD3D Heterodimer Protein …; assay: BLI (Octet), bispecific on anti-human Fc sensor, CD3 in solution, 2:1 heterogeneous ligand model, kdis2
Experimental: as §1, §2

[8] = target: T1, biotinylated-BCMA protein; assay: ELISA, chemiluminescence: biotinylated recombinant BCMA on streptavidin plates, detection with goat anti-human IgG F(ab')2 HRP
Experimental: Bispecific antibodies were analyzed for binding to either recombinant biotinylated BCMA or recombinant biotinylated CD3 antigen (human CD3 epsilon and CD3 delta heterodimer protein, Acro Biosystems). ELISAs were carried out according to standard protocols and plates were washed three time with TBS containing 0.05% Tween 20 (TBS-T) between each incubation step. Ninety-six-well MAXISORP plates (Nunc) were coated with 1 ug/mL of Streptavidin, diluted in 1×dPBS for 18 hours at 4° C. All plates were coated with 20 nM of antigen of interest for 1 hour at room temperature and then blocked with 3% BSA in PBS-T (1×dPBs with 0.05% tween 20) for 1 hour at room temperature. After blocking, plates were incubated with serial dilution of purified bispecific samples in PBS-T for 1 h at RT, and were then incubated with goat anti-human IgG F(ab′2)2 HRP (Jackson ImmunoResearch) for 1 hour at room temperature. After washing, BM Chemilluminesence ELISA Substrate (POD) was added (Millipore) and plates were immediately read on an ENVISION plate reader (Perkin Elmer) using ultrasensitive illuminesence. […] PRISM, where curves were generated and analyzed with a nonlinear regression curve fit.

Row | Binder | Kd [1] [nM] | koff [1] [s⁻¹] | kon [1] [M⁻¹ s⁻¹] | kon [2] [M⁻¹ s⁻¹] | Kd [3] [nM] | Kd [4] [nM] | kon [5] [M⁻¹ s⁻¹] | koff [6] [s⁻¹] | koff [7] [s⁻¹] | EC50 (read off the curve) [8] [nM]
1 | B1 | 5.43 | 0.00142 | 261000 | 158000 | 0.0222 | 2.99 | 15600 | 3.49e-06 | 4.65e-05 | ~2
2 | B2 | 4.02 | 0.00145 | 362000 | 160000 | 0.127 | 3.42 | 16400 | 2.04e-05 | 5.61e-05 | ~2
3 | B3 | – | – | – | 147000 | 0.238 | 4.62 | 16100 | 3.49e-05 | 7.45e-05 | ~2
